Values belong to the binder of their own block, whether it stands above or below them.
What was measured:
[1] = target: T1, Human Recombinant GST-MED1 protein (aa1391-1490), Q15648
T1 chain: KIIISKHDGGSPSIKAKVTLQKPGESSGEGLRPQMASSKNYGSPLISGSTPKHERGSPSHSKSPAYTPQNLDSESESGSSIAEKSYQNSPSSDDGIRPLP

[2] = target: T2, mutant MED1-peptide SPAYAPQNLD
T2 chain: SPAYAPQNLD

[3] = target: T3, wild type MED1-peptide SPAYTPQNLD
T3 chain: SPAYTPQNLD

[4] = target: T4, MED1 (endogenous, phosphorylated upon DHT stimulation) (Homo sapiens, UniProt Q15648 1-1581, phosphothreonine at T1457 and T1032 (DHT-induced)); assay: reciprocal co-immunoprecipitation from LNCaP and VCaP nuclear lysates with MED1 and CDK7 antibodies (FIGS. 5c, 5d)
T4 construct: Endogenous protein immunoprecipitated with an anti-MED1 antibody (Bethyl A300-793A) from nuclear extracts; also called p-MED1; TRAP220
T4 sequence (Q15648 whole entry): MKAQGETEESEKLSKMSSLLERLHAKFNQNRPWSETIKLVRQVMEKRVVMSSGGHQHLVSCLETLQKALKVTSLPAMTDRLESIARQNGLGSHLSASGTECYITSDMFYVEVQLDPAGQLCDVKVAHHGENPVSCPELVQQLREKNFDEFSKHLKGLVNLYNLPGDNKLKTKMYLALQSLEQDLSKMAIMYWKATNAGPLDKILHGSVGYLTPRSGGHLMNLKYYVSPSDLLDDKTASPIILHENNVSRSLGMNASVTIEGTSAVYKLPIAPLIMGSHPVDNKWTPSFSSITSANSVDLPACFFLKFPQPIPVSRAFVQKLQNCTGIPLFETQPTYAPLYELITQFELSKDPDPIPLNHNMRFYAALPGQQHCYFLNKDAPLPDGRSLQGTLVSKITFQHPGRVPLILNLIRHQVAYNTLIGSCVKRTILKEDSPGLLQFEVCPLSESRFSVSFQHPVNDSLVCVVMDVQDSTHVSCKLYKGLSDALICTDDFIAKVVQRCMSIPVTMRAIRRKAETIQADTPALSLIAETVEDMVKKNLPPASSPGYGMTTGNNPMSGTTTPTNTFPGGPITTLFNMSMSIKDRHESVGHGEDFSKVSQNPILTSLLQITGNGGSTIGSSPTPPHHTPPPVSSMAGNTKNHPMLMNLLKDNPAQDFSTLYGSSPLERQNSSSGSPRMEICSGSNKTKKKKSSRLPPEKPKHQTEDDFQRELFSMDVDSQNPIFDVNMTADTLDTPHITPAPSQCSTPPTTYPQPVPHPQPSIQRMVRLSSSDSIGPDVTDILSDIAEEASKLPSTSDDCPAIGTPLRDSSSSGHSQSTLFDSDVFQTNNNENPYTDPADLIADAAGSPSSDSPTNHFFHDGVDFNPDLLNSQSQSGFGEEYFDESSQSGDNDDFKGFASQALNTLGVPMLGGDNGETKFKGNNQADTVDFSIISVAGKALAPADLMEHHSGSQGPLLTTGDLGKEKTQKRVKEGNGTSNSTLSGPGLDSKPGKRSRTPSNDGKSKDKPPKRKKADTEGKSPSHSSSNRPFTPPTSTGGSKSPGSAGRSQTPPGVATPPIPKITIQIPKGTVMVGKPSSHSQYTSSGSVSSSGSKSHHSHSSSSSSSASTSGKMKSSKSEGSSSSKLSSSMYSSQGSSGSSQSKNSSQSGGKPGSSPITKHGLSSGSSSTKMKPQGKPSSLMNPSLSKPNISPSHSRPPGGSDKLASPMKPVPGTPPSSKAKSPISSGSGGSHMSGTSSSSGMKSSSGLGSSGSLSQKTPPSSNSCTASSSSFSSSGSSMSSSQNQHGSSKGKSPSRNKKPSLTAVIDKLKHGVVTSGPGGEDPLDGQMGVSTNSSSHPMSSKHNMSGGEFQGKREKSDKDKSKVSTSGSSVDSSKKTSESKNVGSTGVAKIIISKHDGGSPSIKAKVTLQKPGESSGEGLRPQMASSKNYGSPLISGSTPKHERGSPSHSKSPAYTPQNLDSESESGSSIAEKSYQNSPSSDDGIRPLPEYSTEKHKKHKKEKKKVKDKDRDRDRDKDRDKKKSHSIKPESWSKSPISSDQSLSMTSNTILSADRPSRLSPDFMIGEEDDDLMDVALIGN

B1: CAK complex-CDK7/CyclinH/MAT1 enzyme (recombinant, BPS Bioscience) (protein)
chain 1: ALDVKSRAKRYEKLDFLGEGQFATVYKARDKNTNQIVAIKKIKLGHRSEAKDGINRTALREIKLLQELSHPNIIGLLDAFGHKSNISLVFDFMETDLEVIIKDNSLVLTPSHIKAYMLMTLQGLEYLHQHWILHRDLKPNNLLLDENGVLKLADFGLAKSFGSPNRAYTHQVVTRWYRAPELLFGARMYGVGVDMWAVGCILAELLLRVPFLPGDSDLDQLTRIFETLGTPTEEQWPDMCSLPDYVTFKSFPGIPLHHIFSAAGDDLLDLIQGLFLFNPCARITATQALKMKYFSNRPGPTPGCQLPRPNCPVETLKEQSNPALAIKRKRTEALEQGGLPKKLIF
chain 2: YHNSSQKRHWTFSSEEQLARLRADANRKFRCKAVANGKVLPNDPVFLEPHEEMTLCKYYEKRLLEFCSVFKPAMPRSVVGTACMYFKRFYLNNSVMEYHPRIIMLTCAFLACKVDEFNVSSPQFVGNLRESPLGQEKALEQILEYELLLIQQLNFHLIVHNPYRPFEGFLIDLKTRYPILENPEILRKTADDFLNRIALTDAYLLYTPSQIALTAILSSASRAGITMESYLSESLMLKENRTCLSQLLDIMKSMRNLVKKYEPPRSEEVAVLKQKLERCHSAELALNVITKKRKGYEDDDYVSKKSKHEEEEWTDDDLVESL
chain 3: DDQGCPRCKTTKYRNPSLKLMVNVCGHTLCESCVDLLFVRGAGNCPECGTPLRKSNFRVQLFEDPTVDKEVEIRKKVLKIYNKREEDFPSLREYNDFLEEVEEIVFNLTNNVDLDNTKKKMEIYQKENKDVIQKNKLKLTREQEELEEALEVERQENEQRRLFIQKEEQLQQILKRKNKQAFLDELESSDLPVALLLAQHKDRSTQLEMQLEKPKPVKPVTFSTGIKMGQHISLAPIHKLEEALYEYQPLQIETYGPHVPELEMLGRLGYLNHVRAASPQDLAGGYTSSLACHRALQDAFSGLFWQPS
in vitro kinase assay, immunoblot of the reaction mixtures [1]: we observed Threonine phosphorylation, specifically at T1457, which was completely inhibited by THZ1
luminescence based kinase assay (ADP-Glo) [2]: CDK7 exhibited no activity towards the T1457A mutant peptide
luminescence based kinase assay (ADP-Glo) [3]: CDK7-mediated phosphorylation of the T1457 wildtype peptide was inhibited by THZ1 treatment in a dose-dependent manner

binding result [4]: binds
B2: CDK7 (endogenous) (enzyme, human, UniProt P50613 2-346, looked up)
chain: B1 chain 1
notes: Detected or immunoprecipitated with anti-CDK7 (Cell Signaling 2916s); also called cyclin-dependent-kinase 7

Source: patent US20220288067A1 (University of Pennsylvania, published 2022)
